Test [1] has as its target vascular endothelial growth factor (VEGF) dimer (UniProt P15692). In words: split reporter.
A further test has as its target Flt-1 (Homo sapiens) (UniProt P17948). The note with it: cited from earlier work.

Sequence of Flt-1 (Homo sapiens) (P17948 27-1338): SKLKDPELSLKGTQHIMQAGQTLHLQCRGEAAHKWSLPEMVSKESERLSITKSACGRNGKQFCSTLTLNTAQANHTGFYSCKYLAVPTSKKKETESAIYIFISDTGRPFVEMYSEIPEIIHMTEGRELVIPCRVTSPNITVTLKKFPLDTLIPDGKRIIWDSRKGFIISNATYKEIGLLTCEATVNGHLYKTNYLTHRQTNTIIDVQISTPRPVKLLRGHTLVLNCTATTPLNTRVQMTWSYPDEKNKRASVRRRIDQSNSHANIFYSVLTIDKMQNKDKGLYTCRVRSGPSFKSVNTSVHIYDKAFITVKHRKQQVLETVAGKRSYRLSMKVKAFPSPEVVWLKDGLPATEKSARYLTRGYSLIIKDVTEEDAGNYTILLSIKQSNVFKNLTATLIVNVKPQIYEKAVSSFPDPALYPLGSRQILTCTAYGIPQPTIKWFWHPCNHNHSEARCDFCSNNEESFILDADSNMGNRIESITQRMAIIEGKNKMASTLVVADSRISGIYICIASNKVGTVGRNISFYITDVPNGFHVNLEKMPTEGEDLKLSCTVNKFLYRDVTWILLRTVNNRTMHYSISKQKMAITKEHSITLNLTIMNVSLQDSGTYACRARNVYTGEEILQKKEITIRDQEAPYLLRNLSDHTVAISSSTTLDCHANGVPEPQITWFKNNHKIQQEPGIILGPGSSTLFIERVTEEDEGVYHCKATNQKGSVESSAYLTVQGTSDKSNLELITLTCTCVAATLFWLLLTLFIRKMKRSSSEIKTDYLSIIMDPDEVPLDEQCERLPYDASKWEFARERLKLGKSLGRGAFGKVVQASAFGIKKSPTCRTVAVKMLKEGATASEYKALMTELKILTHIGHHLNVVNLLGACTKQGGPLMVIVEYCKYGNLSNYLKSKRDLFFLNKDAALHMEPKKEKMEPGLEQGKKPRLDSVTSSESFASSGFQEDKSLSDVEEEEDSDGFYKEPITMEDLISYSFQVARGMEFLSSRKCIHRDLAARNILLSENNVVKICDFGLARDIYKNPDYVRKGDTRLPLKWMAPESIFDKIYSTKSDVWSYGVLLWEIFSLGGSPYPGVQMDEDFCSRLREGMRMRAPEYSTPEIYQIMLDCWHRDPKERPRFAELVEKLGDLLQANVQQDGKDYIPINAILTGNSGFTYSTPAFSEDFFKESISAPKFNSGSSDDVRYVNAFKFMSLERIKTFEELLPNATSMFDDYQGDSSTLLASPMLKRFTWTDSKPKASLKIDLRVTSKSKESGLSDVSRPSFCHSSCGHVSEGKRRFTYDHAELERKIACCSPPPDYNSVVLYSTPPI
Sequence of Flt-1 domain 2 fused to the C-terminal half of firefly luciferase (domain or fragment) (P17948 27-1338): as above
Sequence of Flt-1 domain 2 fused to the N-terminal half of firefly luciferase (domain or fragment) (P17948 27-1338): as above
Sequence of VEGF (P15692 whole entry): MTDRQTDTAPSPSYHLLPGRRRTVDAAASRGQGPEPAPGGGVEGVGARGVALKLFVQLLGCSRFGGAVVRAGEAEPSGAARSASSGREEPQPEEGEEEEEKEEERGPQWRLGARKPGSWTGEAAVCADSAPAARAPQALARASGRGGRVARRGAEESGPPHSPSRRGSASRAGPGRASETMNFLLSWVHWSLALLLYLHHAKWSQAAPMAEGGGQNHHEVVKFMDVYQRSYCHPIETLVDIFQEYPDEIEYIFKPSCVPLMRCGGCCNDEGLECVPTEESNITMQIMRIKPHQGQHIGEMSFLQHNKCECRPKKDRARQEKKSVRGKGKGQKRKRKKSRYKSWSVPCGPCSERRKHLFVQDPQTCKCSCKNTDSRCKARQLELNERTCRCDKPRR

In turn, “Flt-1 domain 2 fused to the C-terminal half of firefly luciferase (domain or fragment)” registered a fold increase in luminescence in test [1] of over 13 fold.

In turn, “Flt-1 domain 2 fused to the N-terminal half of firefly luciferase (domain or fragment)” displayed a fold increase in luminescence in test [1] of over 13 fold.

For the substance VEGF (from UniProt P15692), the dissociation constant (Kd) (in general, the free concentration of one partner at which half of the binding sites on the other are occupied at equilibrium, for simple one-to-one binding) with Flt-1 (Homo sapiens) was 1.4 nM.
